Results on six substances are retold here after PMC4371794.

The experiment deals with R499D-quad-PDE4D5. As to the kind of experiment: yeast two-hybrid, quantitative β-galactosidase assay. As to conditions: parent: est. 18, read off a plot.

In the case of “PDE4D5 (wild-type, full-length; "long") (from UniProt Q08499-6) binder:N174A; binder:N175A; target:R173A; target:N174A; target:N175A; target:E228A; target:T229A; target:L230A; target:L306A; target:M307A; target:H308A; target:K323A; target:T324A; target:E325A; target:R499D”, the response (bar labelled DD1 sequence RAA) was 7.1 arbitrary. “PDE4D5 (wild-type, full-length; "long") (from UniProt Q08499-6) binder:N174A; target:R173A; target:N174A; target:N175A; target:E228A; target:T229A; target:L230A; target:L306A; target:M307A; target:H308A; target:K323A; target:T324A; target:E325A; target:R499D”: for the setting “bar labelled DD1 sequence RAN”, the response came out at 1.9 arbitrary. Consider “PDE4D5 (wild-type, full-length; "long") (from UniProt Q08499-6) binder:N175A; target:R173A; target:N174A; target:N175A; target:E228A; target:T229A; target:L230A; target:L306A; target:M307A; target:H308A; target:K323A; target:T324A; target:E325A; target:R499D”, for which the response (bar labelled DD1 sequence RNA) is 5.1 arbitrary.

Take “PDE4D5 (wild-type, full-length; "long") (from UniProt Q08499-6) binder:R173A; binder:N174A; binder:N175A; target:R173A; target:N174A; target:N175A; target:E228A; target:T229A; target:L230A; target:L306A; target:M307A; target:H308A; target:K323A; target:T324A; target:E325A; target:R499D”: the response (bar labelled DD1 sequence AAA) is 1.1 arbitrary. Regarding “PDE4D5 (wild-type, full-length; "long") (from UniProt Q08499-6) binder:R173A; binder:N175A; target:R173A; target:N174A; target:N175A; target:E228A; target:T229A; target:L230A; target:L306A; target:M307A; target:H308A; target:K323A; target:T324A; target:E325A; target:R499D”, the response (bar labelled DD1 sequence ANA) is 0.9 arbitrary.

Take “PDE4D5 (wild-type, full-length; "long") (from UniProt Q08499-6) binder:R173A; target:R173A; target:N174A; target:N175A; target:E228A; target:T229A; target:L230A; target:L306A; target:M307A; target:H308A; target:K323A; target:T324A; target:E325A; target:R499D”: the response (bar labelled DD1 sequence ANN) was found to be 5.4 arbitrary.
